Data on eight molecules can be found in patent publication US12077763B2, “RNA-based control of powdery mildew” (Greenlight Biosciences, Inc., priority 2021, dated 2024).

The test system of the series is E. necator. The series can be described thus: Leaf disc assay, dry inoculum (settling tower), decrease in disease severity / hyphal growth (Example 2). Particulars: decrease in disease severity (hyphal growth) relative to untreated control, value ± SE; for % decrease =/− SE TP1: time point 1 (untreated control hyphal growth ≥50%); for % decrease =/− SE TP2: time point 2.

B1: GS3672 (nucleic acid)
sense: UUCCUGGACAACCAGUAAAGAAAAAGUUGGGACCAAAUCAAACACAAGAAAUGAUAAAGUUUGCAUGUCGAACACCUGCCCAAAAUGCUACCUCAGUUGUUCAAGAUGGAAGACAUGUUUUGAGCCUGAACUCUAGCAACCCUGUUCUAUCUGAAUUUGGCCUUCAAGUAGGUCAGUCUUUGAUAUCAGUAAAUGCUCGAGUACUACAACCACCGUCUGUGAGAUAUGGAGGAUCUGGAAGUCUAUCACCGAGAAAUGGUAGUUGGAAUAUGAUUAACGUGAGAUUUCAUACACCCGCCAAAAUCGGACCAUGGACUUGUAUUAUGUUUCCCACCCAAGGAAGAAAUGACAUUGAUGUUGGUAAUAUGAGAUCACAUGUCACUGCUUUCCAAGCACA
antisense: UGUGCUUGGAAAGCAGUGACAUGUGAUCUCAUAUUACCAACAUCAAUGUCAUUUCUUCCUUGGGUGGGAAACAUAAUACAAGUCCAUGGUCCGAUUUUGGCGGGUGUAUGAAAUCUCACGUUAAUCAUAUUCCAACUACCAUUUCUCGGUGAUAGACUUCCAGAUCCUCCAUAUCUCACAGACGGUGGUUGUAGUACUCGAGCAUUUACUGAUAUCAAAGACUGACCUACUUGAAGGCCAAAUUCAGAUAGAACAGGGUUGCUAGAGUUCAGGCUCAAAACAUGUCUUCCAUCUUGAACAACUGAGGUAGCAUUUUGGGCAGGUGUUCGACAUGCAAACUUUAUCAUUUCUUGUGUUUGAUUUGGUCCCAACUUUUUCUUUACUGGUUGUCCAGGAA
With B1, the “% decrease =/− SE TP1” value is 34 ± 4% and the “% decrease =/− SE TP2” value was 26 ± 7%.

B2: GS3627 (nucleic acid)
sense: CUGUUUGGUCUCCUCUGCUUUGGACUAGUUUCAACUGCUCCAGCACCAAACUCACCUUGGCAUCUACGAAGCCGACAGGAAGGUGGUGGCUACUAUGGCCAACCAUCGAAUGGUGAUGGAAGUGUGUAUCCACCUUCAUCUGGUACAGGUGGCUUUCUAUCGCCAACUGCUACGAGCGGUUAUCCGUCUGCAACUGGAACUGGCGGCUAUUCAUCUCCAUCGGGCACCGGUGGCUACCCGUCUGCAACAGGUACAGGUGGUUACGCAUCGCCAACAGGGACCAGUUACCCUACACCUAC
antisense: GUAGGUGUAGGGUAACUGGUCCCUGUUGGCGAUGCGUAACCACCUGUACCUGUUGCAGACGGGUAGCCACCGGUGCCCGAUGGAGAUGAAUAGCCGCCAGUUCCAGUUGCAGACGGAUAACCGCUCGUAGCAGUUGGCGAUAGAAAGCCACCUGUACCAGAUGAAGGUGGAUACACACUUCCAUCACCAUUCGAUGGUUGGCCAUAGUAGCCACCACCUUCCUGUCGGCUUCGUAGAUGCCAAGGUGAGUUUGGUGCUGGAGCAGUUGAAACUAGUCCAAAGCAGAGGAGACCAAACAG
On to B2, for which the “% decrease =/− SE TP1” value was found to be 30 ± 3% and the “% decrease =/− SE TP2” value is given as 29 ± 6%.

B3: GS3625 (nucleic acid)
sense: GUUUGCCUUUCCAAAUAUCCAUCAUGCAGCUUUGUAACGUACCUCUCGUCCUGUUUGGUCUCCUCUGCUUUGGACUAGUUUCAACUGCUCCAGCACCAAACUCACCUUGGCAUCUACGAAGCCGACAGGAAGGUGGUGGCUACUAUGGCCAACCAUCGAAUGGUGAUGGAAGUGUGUAUCCACCUUCAUCUGGUACAGGUGGCUUUCUAUCGCCAACUGCUACGAGCGGUUAUCCGUCUGCAACUGGAACUGGCGGCUAUUCAUCUCCAUCGGGCACCGGUGGCUACCCGUCUGCAACAGGUACAGGUGGUUACGCAUCGCCAACAGGGACCAGUUACCCUACACCUACUGGAGGUUACUCUGAAGAGCCCUACCACUAUAAAGGUGUCAAGCUAGGUC
antisense: GACCUAGCUUGACACCUUUAUAGUGGUAGGGCUCUUCAGAGUAACCUCCAGUAGGUGUAGGGUAACUGGUCCCUGUUGGCGAUGCGUAACCACCUGUACCUGUUGCAGACGGGUAGCCACCGGUGCCCGAUGGAGAUGAAUAGCCGCCAGUUCCAGUUGCAGACGGAUAACCGCUCGUAGCAGUUGGCGAUAGAAAGCCACCUGUACCAGAUGAAGGUGGAUACACACUUCCAUCACCAUUCGAUGGUUGGCCAUAGUAGCCACCACCUUCCUGUCGGCUUCGUAGAUGCCAAGGUGAGUUUGGUGCUGGAGCAGUUGAAACUAGUCCAAAGCAGAGGAGACCAAACAGGACGAGAGGUACGUUACAAAGCUGCAUGAUGGAUAUUUGGAAAGGCAAAC
In the case of B3, the “% decrease =/− SE TP1” value was determined as 1 ± 2% and the “% decrease =/− SE TP2” value is on record as 0 ± 3%.

B4: GS1813: dsRNA trigger SEQ ID NO 117; gene target hypothetical_protein_BC1G_11193 (nucleic acid)
DNA: CAATACTTATAGACATAATGTATATTGATAATAATCTAGTGTTGCATATCATTGATGAAGCAACTAATTTTCAGGCGGCTAGGTGGCTCAATAATATCTCTGCCAAACATACATGGGATGCCATACGTGCTTGTTGGATTGATACTTACGTTGGGCCCCCAGACTGCATAATAACAGATGCTGGTAAAAACTTCGTTAGCAAGGAATTTAATCAAAATGCATCATCAATGGAAATTTCGGTGAAAAACGTTCCTGTTGAAGCGCATTGGTCAATAGGAAAAATAGAGCGCTATCACTCTTGCATTCGTCGAGCTTATAAAATTATATCAGAAGAACTAGCTGGAACCGGAATCGGCAAAGAGTTTATGCTCCAGATGGCGGTAAAAGCCATAAACGACACAGCCGGACCTAATGGCTTAGTCCCAACTCTTTTAGTTTTTGGAGCTTATCCAAGAATGTCAAATTTAGACCCTCCTATGCCATCCATAATTCAACGGGCTGCTGCAATCAAAAAGGCGATGCTAGAGATAAGTAAATTACGCGCAAAGCTAACCGTGAATAGTGCTCTAAACCATCGAAACGGACCGAATACGAATA
Take B4: the “% decrease =/− SE TP1” value is listed as 11 ± 5% and the “% decrease =/− SE TP2” value worked out at 4 ± 5%.

B5: GS3622 (nucleic acid)
sense: AUGAAGUGCAGGAUUUUUCUCUAUAAGUUUCUUACGUUGUAGCGCCGAAGCUUCUCUAAGUUUAAUCUCUGAUGGAGAUAAAACGUUAUAUAUAGGCGUACCAACAGCAAUUGUCCCCUCUUUAAGUAGAUAUAACUUUCGCUUAUCUUUGUCUCGGUCAGUGCGGAAGUUUGUCCCAGCUUCUGUAAGUUUUACAGCUUUUUCUCGAUUAACUGCUCUUGACACUUGAAGUACGCGACCUUCUAUUGUGUAUAAGCCAUUCUUAUCAGCAGUUUCAUCCUCUAAAAUAGAGUUUUUAGCUUUAACAGCGUUUGCACCACUUUUGAAGGUACGAGGUGCACCAUGGUAACAAGAGUCCGCAUCUUCUUGUCUAUAGAAGCAAACAAAGCCAGUGCCUUUA
antisense: UAAAGGCACUGGCUUUGUUUGCUUCUAUAGACAAGAAGAUGCGGACUCUUGUUACCAUGGUGCACCUCGUACCUUCAAAAGUGGUGCAAACGCUGUUAAAGCUAAAAACUCUAUUUUAGAGGAUGAAACUGCUGAUAAGAAUGGCUUAUACACAAUAGAAGGUCGCGUACUUCAAGUGUCAAGAGCAGUUAAUCGAGAAAAAGCUGUAAAACUUACAGAAGCUGGGACAAACUUCCGCACUGACCGAGACAAAGAUAAGCGAAAGUUAUAUCUACUUAAAGAGGGGACAAUUGCUGUUGGUACGCCUAUAUAUAACGUUUUAUCUCCAUCAGAGAUUAAACUUAGAGAAGCUUCGGCGCUACAACGUAAGAAACUUAUAGAGAAAAAUCCUGCACUUCAU
As for B5, the “% decrease =/− SE TP1” value amounted to 17 ± 4%.

B6: GS3623 (nucleic acid)
sense: AGUUUCUUACGUUGUAGCGCCGAAGCUUCUCUAAGUUUAAUCUCUGAUGGAGAUAAAACGUUAUAUAUAGGCGUACCAACAGCAAUUGUCCCCUCUUUAAGUAGAUAUAACUUUCGCUUAUCUUUGUCUCGGUCAGUGCGGAAGUUUGUCCCAGCUUCUGUAAGUUUUACAGCUUUUUCUCGAUUAACUGCUCUUGACACUUGAAGUACGCGACCUUCUAUUGUGUAUAAGCCAUUCUUAUCAGCAGUUUCAUCCUCUAAAAUAGAGUUUUUAGCUUUAACAGCGUUUGCACCACUUUUGAAGGUACGAGGUGCACCAUGGUAACAAGAGUCCGCAUCUUCUUGUCUAUA
antisense: UAUAGACAAGAAGAUGCGGACUCUUGUUACCAUGGUGCACCUCGUACCUUCAAAAGUGGUGCAAACGCUGUUAAAGCUAAAAACUCUAUUUUAGAGGAUGAAACUGCUGAUAAGAAUGGCUUAUACACAAUAGAAGGUCGCGUACUUCAAGUGUCAAGAGCAGUUAAUCGAGAAAAAGCUGUAAAACUUACAGAAGCUGGGACAAACUUCCGCACUGACCGAGACAAAGAUAAGCGAAAGUUAUAUCUACUUAAAGAGGGGACAAUUGCUGUUGGUACGCCUAUAUAUAACGUUUUAUCUCCAUCAGAGAUUAAACUUAGAGAAGCUUCGGCGCUACAACGUAAGAAACU
Turning to B6, the “% decrease =/− SE TP1” value was found to be 20 ± 3%.

B7: GS3628 (nucleic acid)
sense: UAGUUUCAACUGCUCCAGCACCAAACUCACCUUGGCAUCUACGAAGCCGACAGGAAGGUGGUGGCUACUAUGGCCAACCAUCGAAUGGUGAUGGAAGUGUGUAUCCACCUUCAUCUGGUACAGGUGGCUUUCUAUCGCCAACUGCUACGAGCGGUUAUCCGUCUGCAACUGGAACUGGCGGCUAUUCAUCUCCAUCGGGCACCGGUGGCUACCCGUCUGCAACAGGUACAGGUGGUUACGCAUCGCCAA
antisense: UUGGCGAUGCGUAACCACCUGUACCUGUUGCAGACGGGUAGCCACCGGUGCCCGAUGGAGAUGAAUAGCCGCCAGUUCCAGUUGCAGACGGAUAACCGCUCGUAGCAGUUGGCGAUAGAAAGCCACCUGUACCAGAUGAAGGUGGAUACACACUUCCAUCACCAUUCGAUGGUUGGCCAUAGUAGCCACCACCUUCCUGUCGGCUUCGUAGAUGCCAAGGUGAGUUUGGUGCUGGAGCAGUUGAAACUA
For B7, the “% decrease =/− SE TP1” value is recorded as 12 ± 2% and the “% decrease =/− SE TP2” value was 7 ± 5%.

B8: GS3626 (nucleic acid)
sense: GCAGCUUUGUAACGUACCUCUCGUCCUGUUUGGUCUCCUCUGCUUUGGACUAGUUUCAACUGCUCCAGCACCAAACUCACCUUGGCAUCUACGAAGCCGACAGGAAGGUGGUGGCUACUAUGGCCAACCAUCGAAUGGUGAUGGAAGUGUGUAUCCACCUUCAUCUGGUACAGGUGGCUUUCUAUCGCCAACUGCUACGAGCGGUUAUCCGUCUGCAACUGGAACUGGCGGCUAUUCAUCUCCAUCGGGCACCGGUGGCUACCCGUCUGCAACAGGUACAGGUGGUUACGCAUCGCCAACAGGGACCAGUUACCCUACACCUACUGGAGGUUACUCUGAAGAGCCCUAC
antisense: GUAGGGCUCUUCAGAGUAACCUCCAGUAGGUGUAGGGUAACUGGUCCCUGUUGGCGAUGCGUAACCACCUGUACCUGUUGCAGACGGGUAGCCACCGGUGCCCGAUGGAGAUGAAUAGCCGCCAGUUCCAGUUGCAGACGGAUAACCGCUCGUAGCAGUUGGCGAUAGAAAGCCACCUGUACCAGAUGAAGGUGGAUACACACUUCCAUCACCAUUCGAUGGUUGGCCAUAGUAGCCACCACCUUCCUGUCGGCUUCGUAGAUGCCAAGGUGAGUUUGGUGCUGGAGCAGUUGAAACUAGUCCAAAGCAGAGGAGACCAAACAGGACGAGAGGUACGUUACAAAGCUGC
Consider B8, for which the “% decrease =/− SE TP1” value stood at 3 ± 7% and the “% decrease =/− SE TP2” value was 26 ± 7%.
